# Assay results reported in PMC8298264, “Function of cofactor Akirin2 in the regulation of gene expression in model human neutrophil-like HL60 cells” (Bioscience Reports, 2021).
# Test system: human HL60 cells
# Assay: SWATH-MS proteomics, differential protein representation, akirin2 KO vs WT HL60 cells
# Type: cell-based
# Conditions: SWATH-MS, akirin2 KO vs WT HL60 cells; sheet "Under-represented in KO"
# Method in brief: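 WT and akirin2 KO HL60 lysates (150 µg, n=3 biological replicates) were FASP trypsin-digested and desalted. A spectral library was built by IDA from 3 µg digests, then 5 µg per sample went to variable-window SWATH DIA over a 120-min 5–30% acetonitrile gradient. Identifications were accepted at 1% global FDR, with total-area-sum normalization.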
Molecule,Fold Change,Log (Fold Change)
"sp¦P07954¦FUMH_HUMAN (protein, UniProt P07954 45-510, looked up) Fumarate hydratase, …: ASQNSFRIEYDTFGELKVPNDKYYGAQTVRSTMNFKIGGVTERMPTPVIKAFGILKRAAAEVNQDYGLDPKIANAIMKAADEVAEGKLNDHFPLVVWQTGSGTQTNMNVNEVISNRAIEMLGGELGSKIPVHPNDHVNKSQSSNDTFPTAMHIAAAIEVHEVLLPGLQKLHDALDAKSKEFAQIIKIGRTHTQDAVPLTLGQEFSGYVQQVKYAMTRIKAAMPRIYELAAGGTAVGTGLNTRIGFAEKVAAKVAALTGLPFVTAPNKFEALAAHDALVELSGAMNTTACSLMKIANDIRFLGSGPRSGLGELILPENEPGSSIMPGKVNPTQCEAMTMVAAQVMGNHVAVTVGGSNGHFELNVFKPMMIKNVLHSARLLGDASVSFTENCVVGIQANTERINKLMNESLMLVTALNPHIGYDKAAKIAKTAHKNGSTLKETAIELGYLTAEQFDEWVKPKDMLGPK",0.754,-0.1226
"sp¦O43390¦HNRPR_HUMAN (protein, UniProt O43390 2-633, looked up) Heterogeneous nuclear …: ANQVNGNAVQLKEEEEPMDTSSVTHTEHYKTLIEAGLPQKVAERLDEIFQTGLVAYVDLDERAIDALREFNEEGALSVLQQFKESDLSHVQNKSAFLCGVMKTYRQREKQGSKVQESTKGPDEAKIKALLERTGYTLDVTTGQRKYGGPPPDSVYSGVQPGIGTEVFVGKIPRDLYEDELVPLFEKAGPIWDLRLMMDPLSGQNRGYAFITFCGKEAAQEAVKLCDSYEIRPGKHLGVCISVANNRLFVGSIPKNKTKENILEEFSKVTEGLVDVILYHQPDDKKKNRGFCFLEYEDHKSAAQARRRLMSGKVKVWGNVVTVEWADPVEEPDPEVMAKVKVLFVRNLATTVTEEILEKSFSEFGKLERVKKLKDYAFVHFEDRGAAVKAMDEMNGKEIEGEEIEIVLAKPPDKKRKERQAARQASRSTAYEDYYYHPPPRMPPPIRGRGRGGGRGGYGYPPDYYGYEDYYDDYYGYDYHDYRGGYEDPYYGYDDGYAVRGRGGGRGGRGAPPPPRGRGAPPPRGRAGYSQRGAPLGPPRGSRGGRGGPAQQQRGRGSRGSRGNRGGNVGGKRKADGYNQPDSKRRQTNNQQNWGSQPIAQQPLQQGGDYSGNYGYNNDNQEFYQDTYGQQWK",0.7565,-0.1212
"sp¦P22102¦PUR2_HUMAN (protein, UniProt P22102 2-1010, looked up) Trifunctional purine …: AARVLIIGSGGREHTLAWKLAQSHHVKQVLVAPGNAGTACSEKISNTAISISDHTALAQFCKEKKIEFVVVGPEAPLAAGIVGNLRSAGVQCFGPTAEAAQLESSKRFAKEFMDRHGIPTAQWKAFTKPEEACSFILSADFPALVVKASGLAAGKGVIVAKSKEEACKAVQEIMQEKAFGAAGETIVIEELLDGEEVSCLCFTDGKTVAPMPPAQDHKRLLEGDGGPNTGGMGAYCPAPQVSNDLLLKIKDTVLQRTVDGMQQEGTPYTGILYAGIMLTKNGPKVLEFNCRFGDPECQVILPLLKSDLYEVIQSTLDGLLCTSLPVWLENHTALTVVMASKGYPGDYTKGVEITGFPEAQALGLEVFHAGTALKNGKVVTHGGRVLAVTAIRENLISALEEAKKGLAAIKFEGAIYRKDVGFRAIAFLQQPRSLTYKESGVDIAAGNMLVKKIQPLAKATSRSGCKVDLGGFAGLFDLKAAGFKDPLLASGTDGVGTKLKIAQLCNKHDTIGQDLVAMCVNDILAQGAEPLFFLDYFSCGKLDLSVTEAVVAGIAKACGKAGCALLGGETAEMPDMYPPGEYDLAGFAVGAMERDQKLPHLERITEGDVVVGIASSGLHSNGFSLVRKIVAKSSLQYSSPAPDGCGDQTLGDLLLTPTRIYSHSLLPVLRSGHVKAFAHITGGGLLENIPRVLPEKLGVDLDAQTWRIPRVFSWLQQEGHLSEEEMARTFNCGVGAVLVVSKEQTEQILRDIQQHKEEAWVIGSVVARAEGSPRVKVKNLIESMQINGSVLKNGSLTNHFSFEKKKARVAVLISGTGSNLQALIDSTREPNSSAQIDIVISNKAAVAGLDKAERAGIPTRVINHKLYKNRVEFDSAIDLVLEEFSIDIVCLAGFMRILSGPFVQKWNGKMLNIHPSLLPSFKGSNAHEQALETGVTVTGCTVHFVAEDVDAGQIILQEAVPVKRGDTVATLSERVKLAEHKIFPAALQLVASGTVQLGENGKICWVKEE",0.7577,-0.1205
"sp¦P04844¦RPN2_HUMAN (protein, UniProt P04844 23-631, looked up) Dolichyl-diphosphooligosacchar …: LTPTHYLTKHDVERLKASLDRPFTNLESAFYSIVGLSSLGAQVPDAKKACTYIRSNLDPSNVDSLFYAAQASQALSGCEISISNETKDLLLAAVSEDSSVTQIYHAVAALSGFGLPLASQEALSALTARLSKEETVLATVQALQTASHLSQQADLRSIVEEIEDLVARLDELGGVYLQFEEGLETTALFVAATYKLMDHVGTEPSIKEDQVIQLMNAIFSKKNFESLSEAFSVASAAAVLSHNRYHVPVVVVPEGSASDTHEQAILRLQVTNVLSQPLTQATVKLEHAKSVASRATVLQKTSFTPVGDVFELNFMNVKFSSGYYDFLVEVEGDNRYIANTVELRVKISTEVGITNVDLSTVDKDQSIAPKTTRVTYPAKAKGTFIADSHQNFALFFQLVDVNTGAELTPHQTFVRLHNQKTGQEVVFVAEPDNKNVYKFELDTSERKIEFDSASGTYTLYLIIGDATLKNPILWNVADVVIKFPEEEAPSTVLSQNLFTPKQEIQHLFREPEKRPPTVVSNTFTALILSPLLLLFALWIRIGANVSNFTFAPSTIIFHLGHAAMLGLMYVYWTQLNMFQTLKYLAILGSVTFLAGNRMLAQQAVKRTAH",0.7588,-0.1199
"sp¦Q9H2U2¦IPYR2_HUMAN (protein, UniProt Q9H2U2 33-334, looked up) Inorganic pyrophosphatase 2, …: ALYHTEERGQPCSQNYRLFFKNVTGHYISPFHDIPLKVNSKEENGIPMKKARNDEYENLFNMIVEIPRWTNAKMEIATKEPMNPIKQYVKDGKLRYVANIFPYKGYIWNYGTLPQTWEDPHEKDKSTNCFGDNDPIDVCEIGSKILSCGEVIHVKILGILALIDEGETDWKLIAINANDPEASKFHDIDDVKKFKPGYLEATLNWFRLYKVPDGKPENQFAFNGEFKNKAFALEVIKSTHQCWKALLMKKCNGGAINCTNVQISDSPFRCTQEEARSLVESVSSSPNKESNEEEQVWHFLGK",0.76,-0.1192
"sp¦Q9NVP1¦DDX18_HUMAN (protein, UniProt Q9NVP1 1-670, looked up) ATP-dependent RNA helicase …: MSHLPMKLLRKKIEKRNLKLRQRNLKFQGASNLTLSETQNGDVSEETMGSRKVKKSKQKPMNVGLSETQNGGMSQEAVGNIKVTKSPQKSTVLTNGEAAMQSSNSESKKKKKKKRKMVNDAEPDTKKAKTENKGKSEEESAETTKETENNVEKPDNDEDESEVPSLPLGLTGAFEDTSFASLCNLVNENTLKAIKEMGFTNMTEIQHKSIRPLLEGRDLLAAAKTGSGKTLAFLIPAVELIVKLRFMPRNGTGVLILSPTRELAMQTFGVLKELMTHHVHTYGLIMGGSNRSAEAQKLGNGINIIVATPGRLLDHMQNTPGFMYKNLQCLVIDEADRILDVGFEEELKQIIKLLPTRRQTMLFSATQTRKVEDLARISLKKEPLYVGVDDDKANATVDGLEQGYVVCPSEKRFLLLFTFLKKNRKKKLMVFFSSCMSVKYHYELLNYIDLPVLAIHGKQKQNKRTTTFFQFCNADSGTLLCTDVAARGLDIPEVDWIVQYDPPDDPKEYIHRVGRTARGLNGRGHALLILRPEELGFLRYLKQSKVPLSEFDFSWSKISDIQSQLEKLIEKNYFLHKSAQEAYKSYIRAYDSHSLKQIFNVNNLNLPQVALSFGFKVPPFVDLNVNSNEGKQKKRGGGGGFGYQKTKKVEKSKIFKHISKKSSDSRQFSH",0.7616,-0.1182
"sp¦P13804¦ETFA_HUMAN (protein, UniProt P13804 20-333, looked up) Electron transfer …: QSTLVIAEHANDSLAPITLNTITAATRLGGEVSCLVAGTKCDKVAQDLCKVAGIAKVLVAQHDVYKGLLPEELTPLILATQKQFNYTHICAGASAFGKNLLPRVAAKLEVAPISDIIAIKSPDTFVRTIYAGNALCTVKCDEKVKVFSVRGTSFDAAATSGGSASSEKASSTSPVEISEWLDQKLTKSDRPELTGAKVVVSGGRGLKSGENFKLLYDLADQLHAAVGASRAAVDAGFVPNDMQVGQTGKIVAPELYIAVGISGAIQHLAGMKDSKTIVAINKDPEAPIFQVADYGIVADLFKVVPEMTEILKKK",0.7634,-0.1173
"sp¦P30044¦PRDX5_HUMAN (protein, UniProt P30044 53-214, looked up) Peroxiredoxin-5, mitochondrial: MAPIKVGDAIPAVEVFEGEPGNKVNLAELFKGKKGVLFGVPGAFTPGCSKTHLPGFVEQAEALKAKGVQVVACLSVNDAFVTGEWGRAHKAEGKVRLLADPTGAFGKETDLLLDDSLVSIFGNRRLKRFSMVVQDGIVKALNVEPDGTGLTCSLAPNIISQL",0.764,-0.1169
"sp¦P00505¦AATM_HUMAN (protein, UniProt P00505 30-430, looked up) Aspartate aminotransferase, …: SSWWTHVEMGPPDPILGVTEAFKRDTNSKKMNLGVGAYRDDNGKPYVLPSVRKAEAQIAAKNLDKEYLPIGGLAEFCKASAELALGENSEVLKSGRFVTVQTISGTGALRIGASFLQRFFKFSRDVFLPKPTWGNHTPIFRDAGMQLQGYRYYDPKTCGFDFTGAVEDISKIPEQSVLLLHACAHNPTGVDPRPEQWKEIATVVKKRNLFAFFDMAYQGFASGDGDKDAWAVRHFIEQGINVCLCQSYAKNMGLYGERVGAFTMVCKDADEAKRVESQLKILIRPMYSNPPLNGARIAAAILNTPDLRKQWLQEVKVMADRIIGMRTQLVSNLKKEGSTHNWQHITDQIGMFCFTGLKPEQVERLIKEFSIYMTKDGRISVAGVTSSNVGYLAHAIHQVTK",0.7669,-0.1152
"sp¦Q9HAV0¦GBB4_HUMAN (protein, UniProt Q9HAV0 2-340, looked up) Guanine nucleotide-binding …: SELEQLRQEAEQLRNQIQDARKACNDATLVQITSNMDSVGRIQMRTRRTLRGHLAKIYAMHWGYDSRLLVSASQDGKLIIWDSYTTNKMHAIPLRSSWVMTCAYAPSGNYVACGGLDNICSIYNLKTREGNVRVSRELPGHTGYLSCCRFLDDSQIVTSSGDTTCALWDIETAQQTTTFTGHSGDVMSLSLSPDMRTFVSGACDASSKLWDIRDGMCRQSFTGHVSDINAVSFFPNGYAFATGSDDATCRLFDLRADQELLLYSHDNIICGITSVAFSKSGRLLLAGYDDFNCNVWDTLKGDRAGVLAGHDNRVSCLGVTDDGMAVATGSWDSFLRIWN",0.7672,-0.1151
"sp¦Q6NVY1¦HIBCH_HUMAN (protein, UniProt Q6NVY1 33-386, looked up) 3-hydroxyisobutyryl-CoA …: DAAEEVLLEKKGCTGVITLNRPKFLNALTLNMIRQIYPQLKKWEQDPETFLIIIKGAGGKAFCAGGDIRVISEAEKAKQKIAPVFFREEYMLNNAVGSCQKPYVALIHGITMGGGVGLSVHGQFRVATEKCLFAMPETAIGLFPDVGGGYFLPRLQGKLGYFLALTGFRLKGRDVYRAGIATHFVDSEKLAMLEEDLLALKSPSKENIASVLENYHTESKIDRDKSFILEEHMDKINSCFSANTVEEIIENLQQDGSSFALEQLKVINKMSPTSLKITLRQLMEGSSKTLQEVLTMEYRLSQACMRGHDFHEGVRAVLIDKDQSPKWKPADLKEVTEEDLNNHFKSLGSSDLKF",0.7678,-0.1147
